PMC3089455
Values belong to the substance of their own block, whether it stands above or below them.

Legend:
[1] = molecular target: Aeromonas hydrophila AhQnr (Aeromonas hydrophila ATCC 7966); assay: AUC
[2] = molecular target: AhQnr Δdouble deletion mutant (both loops removed) with C-terminal hexahistidine tag (Aeromonas hydrophila ATCC 7966); assay: SEC
[3] = molecular target: AhQnr Δloop1 deletion mutant with C-terminal hexahistidine tag (Aeromonas hydrophila ATCC 7966); assay: SEC
[4] = molecular target: AhQnr Δloop2 deletion mutant with C-terminal hexahistidine tag (Aeromonas hydrophila ATCC 7966); assay: SEC

stoichiometry N [1]: 2
Substance: Aeromonas hydrophila AhQnr (natural protein)

stoichiometry N [2]: 2
Substance: AhQnr Δdouble deletion mutant (both loops removed) with C-terminal hexahistidine tag (natural protein)

stoichiometry N [3]: 2
Substance: AhQnr Δloop1 deletion mutant with C-terminal hexahistidine tag (natural protein)

stoichiometry N [4]: 2
Substance: AhQnr Δloop2 deletion mutant with C-terminal hexahistidine tag (natural protein)
